The target of test [1] is T1, 人Tim-3 on CHO-K1 hTim-3+ cells (human, UniProt Q8TDQ0 22-301).
T1 construct: whole, on cells; Mature protein 22-301; also called hTim-3+细胞; 人Tim-3+细胞
In words: cell ELISA on fixed CHO-K1 hTim-3+ cells (Example 2). (In general: An ELISA detects its analyte on a solid surface through an enzyme-linked reagent.)

The target of test [2] is 猕猴(Macaca)Tim-3蛋白 (猕猴(Macaca)). In words: ELISA (method of Example 3), Fig. 4a.
In the next test the target is T2, 狨猴(marmoset) Tim-3蛋白 (狨猴(marmoset), UniProt F7I881 21-290).
T2 sequence: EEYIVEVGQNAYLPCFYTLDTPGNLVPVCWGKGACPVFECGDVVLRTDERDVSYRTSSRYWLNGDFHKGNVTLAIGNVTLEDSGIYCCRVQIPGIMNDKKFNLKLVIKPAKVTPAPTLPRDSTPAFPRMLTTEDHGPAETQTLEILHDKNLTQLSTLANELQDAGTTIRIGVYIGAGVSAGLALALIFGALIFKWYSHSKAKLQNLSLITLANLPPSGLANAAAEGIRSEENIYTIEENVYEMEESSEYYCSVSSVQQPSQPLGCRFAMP
The experiment in a line: ELISA (method of Example 3), Fig. 4b.

The target in test [3] is T3, 人TIM-3 (recombinant antigen of the ELISA of Example 3: TIM-3-hFc captured on goat-anti-hFc, or Tim-3-his … (human, UniProt Q8TDQ0 22-202)).
T3 construct: extracellular domain; also called 人TIM-3抗原; not shown: a His tag instead if Tim-3-his was coated
The experiment in a line: ELISA on human TIM-3 (Example 3).

Test [4] deals with T4, 人Tim-3 (antigen, analyte of the Biacore assay of Example 7) (human, UniProt Q8TDQ0 22-199).
T4 construct: Antibody captured on Protein A chip, antigen TIM-3 flowed at 0-30 nM; also called 抗原TIM-3
In words: SPR, Biacore T200, antibody captured on Protein A, TIM-3 as analyte, 1:1 Langmuir.

Test [5] has as its target T3, 人TIM-3 (recombinant antigen of the …). The experiment in a line: ELISA on human TIM-3 (Example 3). The source holds these as a separate data set.
For test [6] the target is unchanged. The experiment in a line: ELISA on human TIM-3, against ABTIM3 as reference.
In test [7] the target is 猕猴(Macaca)Tim-3蛋白 (猕猴(Macaca)). The experiment in a line: ELISA, against ABTIM3 as reference.
Test [8] has as its target T4, 人Tim-3 (antigen, analyte of the Biacore …). The experiment in a line: SPR, Biacore, method of Example 7. On the technique in general: In SPR one partner is held on a chip, and binding of the other changes the refractive index at the surface.

The record followed here is patent CN110272489A (SHANGHAI JIANXIN BIOPHARMACEUTICALS LLC, dated 2019).

What is called EC50 is the concentration that produces a half-maximal response. Usually Kd stands for the free concentration of one partner at which half of the binding sites on the other are occupied at equilibrium, for simple one-to-one binding. The low end stands for a tighter complex, the high end for a looser complex. What is called koff is a measure of how fast the partners let go of each other. Low readings indicate a long-lived complex, high ones a short-lived complex. A word on the kon: it is a measure of how fast the partners come together. A lower kon goes with slower complex formation.

Read-outs that look alike come from different tables or passages of the source.

B1: ABTIM3 (阳性对照抗体) (antibody, V domains shown)
VH: QVQLQQPGAELVKPGASVKMSCKASGYTFTSYNMHWIKQTPGQGLEWIGDIYPGNGDTSYNQKFKGKATLTADKSSSTVYMQLSSLTSEDSAVYYCARVGGAFPMDYWGQGTSVTVSS
VL: DIVLTQSPASLAVSLGQRATISCRASESVEYYGTSLMQWYQQKPGQPPKLLIYAASNVESGVPARFSGSGSGTDFSLNIHPVEEDDIAIYFCQQSRKDPSTFGGGTKLEIK
Consider B1, for which the EC50 in test [1] is 0.15 to 0.23 nM; with 猕猴(Macaca)Tim-3蛋白 [2], 0.14 nM; with 狨猴(marmoset) Tim-3蛋白, 0.4 nM; in [3] it was 0.376 nM.

B2: mab15-c (嵌合抗体, hIgG4-κ) (antibody, V domains shown)
VH: EVKLVESEGGLVQPGSSMKLSCTASGFTFSDYYMTWVRQVPEKGLEWVASINYDGRNTYYLDSLKSRFIISRDNAKNILYLQMSSLKSEDTATYYCARGYYYYGSSPNYFDYWGQGTTLTVSS
VL: DIQMTQSPASLSASVGETVTITCRASENIYSYLTWYQQKQGKSPQLLVYNAKTLAEGVPSRFSGSGSGTQFSLRINSLQPEDFGNYYCQQHYGTPLTFGAGTKLELKR
notes: Chimeric antibody: mab15 variable regions with human IgG4 / kappa constant regions
In [4], B2 gave an equilibrium dissociation constant (Kd) of 0.31 nM, an off-rate constant (koff) of 0.000106 s⁻¹ and a kon of 344000 M⁻¹ s⁻¹. Moreover, the concentration for a half-maximal effect (EC50) in [5] came to 0.183 nM. For the same molecule, the EC50 in [3] was found to be 0.158 nM. Moreover, in [6], the “fold better than the reference antibody (ratio of EC50, reference/mab15-c)” value was 2.38 fold.

B3: 人源化ab16 抗体 (antibody, human IgG4 S228P, kappa, V domains shown)
VH: EVQLVESGGGLVKPGGSLRLSCAASGFTFSDYYMTWVRQAPGKGLEWVASINYDGRNTYYLDSLKSRFTISRDNAKNSLYLQMNSLRAEDTAVYYCARGYYYYGSSPNYFDYWGQGTLVTVSS
VL: DIQMTQSPSSLSASVGDRVTITCRASENIYSYLTWYQQKPGKSPKLLVYNAKTLAEGVPSRFSGSGSGTQFSLTISSLQPEDFANYYCQQHYGTPLTFGQGTKLEIKR
notes: Humanized, hIgG4-kappa
As to B3, the half-maximal effective concentration (EC50) in test [1] was 0.151 nM; in test [5], 0.145 nM.

B4: 人源化ab32抗体 (全人源化抗体) (antibody, human IgG4 S228P, kappa, V domains shown)
VH: EVQLVESGGGLVKPGGSLRLSCAASGFTFSDYYMTWVRQAPGKGLEWVSSINYDGRNTYYLDSLKSRFTISRDNAKNSLYLQMNSLRAEDTAVYYCARGYYYYGSSPNYFDYWGQGTLVTVSS
VL: DIQMTQSPSSLSASVGDRVTITCRASENIYSYLTWYQQKPGKAPKLLIYNAKTLAEGVPSRFSGSGSGTDFTLTISSLQPEDFATYYCQQHYGTPLTFGQGTKLEIKR
notes: Fully humanized (no back mutations), hIgG4-kappa
As for B4, the values for the 50% effective concentration (EC50) (in [1]; with 猕猴(Macaca)Tim-3蛋白 [2]; in test [5]) were 0.112 nM, 11 nM and 0.184 nM, respectively. The “fold weaker than the positive control antibody” value in the test with 猕猴(Macaca)Tim-3蛋白 [7] is approximately 100 fold. In addition, the koff in test [8] worked out at 0.000296 s⁻¹.

B5: 人源化ab17抗体 (antibody, human IgG4 S228P, kappa, V domains shown)
VH: EVQLVESGGGLVKPGGSLRLSCAASGFTFSDYYMTWVRQAPGKGLEWVASINYDGRNTYYLDSLKSRFTISRDNAKNSLYLQMNSLRAEDTAVYYCARGYYYYGSSPNYFDYWGQGTLVTVSS
VL: DIQMTQSPSSLSASVGDRVTITCRASENIYSYLTWYQQKPGKSPKLLVYNAKTLAEGVPSRFSGSGSGTQFTLTISSLQPEDFATYYCQQHYGTPLTFGQGTKLEIKR
notes: Humanized, hIgG4-kappa
As to B5, the EC50 in test [5] worked out at 0.212 nM.

B6: 人源化ab18抗体 (antibody, human IgG4 S228P, kappa, V domains shown)
VH: EVQLVESGGGLVKPGGSLRLSCAASGFTFSDYYMTWVRQAPGKGLEWVASINYDGRNTYYLDSLKSRFTISRDNAKNSLYLQMNSLRAEDTAVYYCARGYYYYGSSPNYFDYWGQGTLVTVSS
VL: DIQMTQSPSSLSASVGDRVTITCRASENIYSYLTWYQQKPGKAPKLLIYNAKTLAEGVPSRFSGSGSGTDFTLTISSLQPEDFATYYCQQHYGTPLTFGQGTKLEIKR
notes: Humanized, hIgG4-kappa
On to B6, for which, in [5], the EC50 turned out to be 0.198 nM.

B7: 人源化ab23抗体 (antibody, human IgG4 S228P, kappa, V domains shown)
VH: EVQLVESGGGLVKPGGSLRLSCAASGFTFSDYYMTWVRQAPGKGLEWVASINYDGRNTYYLDSLKSRFTISRDNAKNILYLQMNSLRAEDTAVYYCARGYYYYGSSPNYFDYWGQGTLVTVSS
VL: DIQMTQSPSSLSASVGDRVTITCRASENIYSYLTWYQQKPGKSPKLLVYNAKTLAEGVPSRFSGSGSGTQFSLTISSLQPEDFANYYCQQHYGTPLTFGQGTKLEIKR
notes: Humanized, hIgG4-kappa
Regarding B7, the EC50 in [5] is 0.21 nM.

B8: 人源化ab30抗体 (antibody, human IgG4 S228P, kappa, V domains shown)
VH: EVQLVESGGGLVKPGGSLRLSCAASGFTFSDYYMTWVRQAPGKGLEWVSSINYDGRNTYYLDSLKSRFTISRDNAKNSLYLQMNSLRAEDTAVYYCARGYYYYGSSPNYFDYWGQGTLVTVSS
VL: DIQMTQSPSSLSASVGDRVTITCRASENIYSYLTWYQQKPGKSPKLLVYNAKTLAEGVPSRFSGSGSGTQFSLTISSLQPEDFANYYCQQHYGTPLTFGQGTKLEIKR
notes: Humanized, hIgG4-kappa
For B8, the EC50 in test [5] was found to be 0.233 nM.

B9: 人源化ab24抗体 (antibody, human IgG4 S228P, kappa, V domains shown)
VH: EVQLVESGGGLVKPGGSLRLSCAASGFTFSDYYMTWVRQAPGKGLEWVASINYDGRNTYYLDSLKSRFTISRDNAKNILYLQMNSLRAEDTAVYYCARGYYYYGSSPNYFDYWGQGTLVTVSS
VL: DIQMTQSPSSLSASVGDRVTITCRASENIYSYLTWYQQKPGKSPKLLVYNAKTLAEGVPSRFSGSGSGTQFTLTISSLQPEDFATYYCQQHYGTPLTFGQGTKLEIKR
notes: Humanized, hIgG4-kappa
As for B9, the EC50 in test [5] amounted to 0.243 nM.
